Assay results taken from the Immune Epitope Database (IEDB).
Blank lines part the entries; values can stand above or below the sequence they belong to.

Tests used:
HLA-C*07:02 = assay: IEDB peptide-MHC binding, purified MHC/direct/fluorescence; filed as Kd, often an IC50 or EC50 that approximates it; ≥ and ≤ were set here for values at or beyond the usual limits of such assays
HLA-C*06:02 = assay: as above
HLA-B*08:02 = assay: as above; conditions: source organism: dengue virus type 4
HLA-B*40:01 = assay: as above
HLA-C*14:02 = assay: as above
HLA-A*31:01 = assay: as above
HLA-B*27:05 [1] = assay: as above
HLA-A*02:01 [2] = assay: as above
HLA-A*03:01 [3] = assay: as above
HLA-B*15:01 [4] = assay: as above
HLA-A*11:01 [5] = assay: as above
HLA-B*58:01 = assay: as above
HLA-B*46:01 = assay: IEDB peptide-MHC binding, purified MHC/competitive/fluorescence; filed as Kd, often an IC50 or EC50 that approximates it; ≥ and ≤ were set here for values at or beyond the usual limits of such assays
HLA-A*26:01 [6] = assay: IEDB peptide-MHC binding, purified MHC/direct/fluorescence; filed as Kd, often an IC50 or EC50 that approximates it; ≥ and ≤ were set here for values at or beyond the usual limits of such assays
HLA-A*24:03 = assay: as above
HLA-A*30:01 = assay: as above
HLA-A*69:01 = assay: as above
HLA-A*01:01 [7] = assay: as above
HLA-B*08:01 [8] = assay: as above
HLA-B*07:02 [9] = assay: as above
HLA-A*02:01 [10] = assay: IEDB peptide-MHC binding, purified MHC/competitive/fluorescence; ≥ and ≤ were set here for values at or beyond the usual limits of such assays
HLA-A*03:01 [11] = assay: as above
HLA-A*11:01 [12] = assay: as above
HLA-A*01:01 [13] = assay: as above
HLA-B*08:01 [14] = assay: IEDB peptide-MHC binding, purified MHC/competitive/fluorescence; filed as Kd, often an IC50 or EC50 that approximates it; ≥ and ≤ were set here for values at or beyond the usual limits of such assays; conditions: source organism: Bacillus anthracis str. A0488
HLA-C*12:03 = assay: IEDB peptide-MHC binding, purified MHC/direct/fluorescence; filed as Kd, often an IC50 or EC50 that approximates it; ≥ and ≤ were set here for values at or beyond the usual limits of such assays
HLA-A*02:01 [15] = assay: IEDB peptide-MHC binding, purified MHC/competitive/fluorescence; filed as Kd, often an IC50 or EC50 that approximates it; ≥ and ≤ were set here for values at or beyond the usual limits of such assays
HLA-A*24:02 = assay: IEDB peptide-MHC binding, purified MHC/competitive/fluorescence; ≥ and ≤ were set here for values at or beyond the usual limits of such assays; conditions: source organism: Zaire ebolavirus
HLA-B*15:01 [16] = assay: as above; conditions: source organism: Zaire ebolavirus
HLA-B*07:02 [17] = assay: as above
HLA-A*68:02 = assay: IEDB peptide-MHC binding, purified MHC/direct/fluorescence; filed as Kd, often an IC50 or EC50 that approximates it; ≥ and ≤ were set here for values at or beyond the usual limits of such assays; conditions: source organism: Limestone Canyon virus
HLA-A*02:16 = assay: as above; conditions: source organism: Limestone Canyon virus
HLA-A*02:11 = assay: as above; conditions: source organism: Limestone Canyon virus
HLA-A*02:19 = assay: as above; conditions: source organism: Limestone Canyon virus
HLA-A*02:12 = assay: as above; conditions: source organism: Limestone Canyon virus
HLA-A*02:03 = assay: as above; conditions: source organism: Limestone Canyon virus
HLA-A*26:01 [18] = assay: IEDB peptide-MHC binding, purified MHC/competitive/fluorescence; filed as Kd, often an IC50 or EC50 that approximates it; ≥ and ≤ were set here for values at or beyond the usual limits of such assays; conditions: source organism: Orthohantavirus sinnombreense
HLA-B*57:01 = assay: as above; conditions: source organism: Orthohantavirus sinnombreense
HLA-B*15:17 = assay: as above; conditions: source organism: Orthohantavirus sinnombreense
HLA-B*27:05 [19] = assay: as above; conditions: source organism: Orthohantavirus sinnombreense
HLA-B*51:01 = assay: as above; conditions: source organism: Orthohantavirus sinnombreense
HLA-B*39:01 = assay: as above; conditions: source organism: Orthohantavirus sinnombreense
HLA-B*18:01 = assay: as above; conditions: source organism: Orthohantavirus sinnombreense
HLA-B*15:01 [20] = assay: as above; conditions: source organism: Orthohantavirus sinnombreense
HLA-C*03:03 = assay: IEDB peptide-MHC binding, purified MHC/direct/fluorescence; filed as Kd, often an IC50 or EC50 that approximates it; ≥ and ≤ were set here for values at or beyond the usual limits of such assays; conditions: source organism: Bacillus mycoides KBAB4
HLA-C*15:02 = assay: as above; conditions: source organism: Cytophaga hutchinsonii ATCC 33406
[21] = source organism: Dengue virus 2 Jamaica/1409/1983
[22] = source organism: Giardia lamblia ATCC 50803
[23] = source organism: Vaccinia virus
[24] = source organism: Zaire ebolavirus
[25] = source organism: West Nile virus
[26] = source organism: Limestone Canyon virus
[27] = source organism: Orthohantavirus sinnombreense
[28] = source organism: Bacillus mycoides KBAB4
[29] = source organism: Pseudomonas aeruginosa UCBPP-PA14
[30] = source organism: Pseudomonas aeruginosa

Sequence: FRKKRLTIM
Kd (HLA-C*07:02; [21]): 0.446 µM | Kd (HLA-C*06:02; [21]): 0.018 µM | Kd (HLA-B*08:02): 4.43 µM

Sequence: KQYNVTQAF
Kd (HLA-B*40:01; source organism: SARS-CoV1): 5.33 µM | Kd (HLA-C*14:02; source organism: SARS-CoV1): 0.002 µM | Kd (HLA-A*31:01; source organism: SARS-CoV1): 0.449 µM | Kd (HLA-B*27:05 [1]; source organism: SARS-CoV1): 0.538 µM | Kd (HLA-A*02:01 [2]; source organism: SARS-CoV1): ≥ 51.3 µM | Kd (HLA-A*03:01 [3]; source organism: SARS-CoV1): 6.35 µM | Kd (HLA-B*15:01 [4]; source organism: SARS-CoV1): 0.0871 µM | Kd (HLA-A*11:01 [5]; source organism: SARS-CoV1): ≥ 28.4 µM | Kd (HLA-B*58:01; source organism: SARS-CoV1): 1.01 µM | Kd (HLA-B*46:01; source organism: SARS-CoV1): 0.0652 µM

Sequence: KVGVYKMHK
Kd (HLA-A*26:01 [6]; [22]): ≥ 20 µM | Kd (HLA-B*40:01; [22]): ≥ 20 µM | Kd (HLA-A*24:03; [22]): ≥ 20 µM | Kd (HLA-A*30:01; [22]): 0.0152 µM | Kd (HLA-A*31:01; [22]): 0.0552 µM | Kd (HLA-B*27:05 [1]; [22]): ≥ 20 µM | Kd (HLA-A*02:01 [2]; [22]): ≥ 20 µM | Kd (HLA-A*69:01; [22]): ≥ 20 µM | Kd (HLA-A*03:01 [3]; [22]): 0.163 µM | Kd (HLA-B*15:01 [4]; [22]): ≥ 20 µM | Kd (HLA-A*11:01 [5]; [22]): 0.0334 µM | Kd (HLA-A*01:01 [7]; [22]): ≥ 20 µM | Kd (HLA-B*08:01 [8]; [22]): ≥ 20 µM | Kd (HLA-B*07:02 [9]; [22]): ≥ 20 µM | Kd (HLA-B*58:01; [22]): ≥ 20 µM

Sequence: AVDRGCLRI
IC50 (HLA-A*02:01 [10]; [23]): 3.51 µM | IC50 (HLA-A*03:01 [11]; [23]): 16.1 µM | IC50 (HLA-A*11:01 [12]; [23]): 11.8 µM | IC50 (HLA-A*01:01 [13]; [23]): ≥ 183 µM

Sequence: AANMYIYPL
Kd (HLA-C*14:02; source organism: Bacillus anthracis str. A0488): 0.057 µM | Kd (HLA-B*08:01 [14]): 1.1 µM

Sequence: DSDNTQSEH
IC50 (HLA-A*01:01 [13]; [24]): ≥ 84.2 µM

Sequence: SLYAVTTAV
Kd (HLA-C*12:03; [25]): 0.027 µM | Kd (HLA-A*02:01 [15]; [25]): 0.00137 µM

Sequence: RTFSIPLGV
IC50 (HLA-A*24:02): 33 µM | IC50 (HLA-A*02:01 [10]; [24]): 0.321 µM | IC50 (HLA-A*03:01 [11]; [24]): 3.46 µM | IC50 (HLA-B*15:01 [16]): ≥ 221 µM | IC50 (HLA-A*11:01 [12]; [24]): 1.62 µM | IC50 (HLA-B*07:02 [17]; [24]): ≥ 167 µM

Sequence: YRTLGVFRY
Kd (HLA-A*68:02): ≥ 20 µM | Kd (HLA-A*02:16): ≥ 20 µM | Kd (HLA-A*24:03; [26]): ≥ 20 µM | Kd (HLA-C*07:02; [27]): 0.048 µM | Kd (HLA-A*02:11): ≥ 20 µM | Kd (HLA-A*02:19): ≥ 20 µM | Kd (HLA-A*03:01 [3]; [26]): ≥ 20 µM | Kd (HLA-A*02:12): ≥ 20 µM | Kd (HLA-A*02:03): ≥ 20 µM | Kd (HLA-A*26:01 [18]): ≥ 20 µM | Kd (HLA-B*57:01): ≥ 20 µM | Kd (HLA-B*15:17): ≥ 20 µM | Kd (HLA-B*27:05 [19]): 0.144 µM | Kd (HLA-B*51:01): ≥ 20 µM | Kd (HLA-B*39:01): ≥ 20 µM | Kd (HLA-A*02:01 [15]; [27]): ≥ 20 µM | Kd (HLA-B*18:01): ≥ 20 µM | Kd (HLA-B*15:01 [20]): ≥ 20 µM | Kd (HLA-B*46:01; [27]): ≥ 20 µM

Sequence: YTSGKRSNT
IC50 (HLA-A*02:01 [10]; [24]): ≥ 354 µM | IC50 (HLA-B*07:02 [17]; [24]): 5.9 µM

Sequence: FAFCRITSF
Kd (HLA-C*03:03): 0.002 µM | Kd (HLA-C*06:02; [28]): 1.08 µM | Kd (HLA-C*12:03; [28]): ≤ 0.001 µM

Kd (HLA-C*14:02; source organism: Mus musculus): 0.027 µM
Sequence: AYVTWIALM

Sequence: LSGVNNLEH
IC50 (HLA-A*03:01 [11]; [24]): 43.5 µM | IC50 (HLA-A*11:01 [12]; [24]): 5.06 µM | IC50 (HLA-A*01:01 [13]; [24]): ≥ 167 µM

Kd (HLA-A*26:01 [6]; [29]): ≥ 20 µM | Kd (HLA-B*40:01; [29]): ≥ 20 µM | Kd (HLA-A*24:03; [30]): 0.00184 µM | Kd (HLA-A*30:01; [30]): ≥ 31.6 µM | Kd (HLA-B*27:05 [1]; [29]): ≥ 20 µM | Kd (HLA-A*02:01 [2]; [29]): ≥ 20 µM | Kd (HLA-A*69:01; [29]): ≥ 20 µM | Kd (HLA-A*03:01 [3]; [29]): ≥ 20 µM | Kd (HLA-A*11:01 [5]; [29]): ≥ 20 µM | Kd (HLA-A*01:01 [7]; [29]): ≥ 20 µM | Kd (HLA-B*08:01 [8]; [29]): ≥ 20 µM | Kd (HLA-B*07:02 [9]; [29]): ≥ 20 µM | Kd (HLA-B*58:01; [30]): 4.7 µM
Sequence: AYGSRFHEW

Kd (HLA-C*15:02): ≥ 20 µM | Kd (HLA-A*02:01 [15]; source organism: Cytophaga hutchinsonii ATCC 33406): 0.0006 µM
Sequence: GLADAFILL

Sequence: IPSSSPTTA
IC50 (HLA-B*07:02 [17]; source organism: Sudan ebolavirus): 22.1 µM
